Among the data in patent US20140045211A1 are calcium flux (dose response curve) values, retold here.

The experiment deals with CCR1 on HEK293 cells / HEK293 membranes stably expressing CCR1 (UniProt P32246). The experiment in a line: cell-based or functional assay.
Chain of CCR1 on HEK293 cells / HEK293 membranes stably expressing CCR1 (P32246 whole entry): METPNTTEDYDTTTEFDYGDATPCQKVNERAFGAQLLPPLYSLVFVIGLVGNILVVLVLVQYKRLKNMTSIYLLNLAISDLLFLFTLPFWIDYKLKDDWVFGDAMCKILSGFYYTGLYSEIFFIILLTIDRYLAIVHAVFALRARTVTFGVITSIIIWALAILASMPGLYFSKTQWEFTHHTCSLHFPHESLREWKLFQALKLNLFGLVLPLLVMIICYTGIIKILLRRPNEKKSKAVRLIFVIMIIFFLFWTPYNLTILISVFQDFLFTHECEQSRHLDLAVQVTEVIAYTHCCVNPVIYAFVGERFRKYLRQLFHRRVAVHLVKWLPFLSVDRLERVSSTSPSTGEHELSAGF

Take “CCL14-fluorescein (CCL14 9-74 with added C-terminal cysteine labeled with fluorescein-5-maleimide) (from UniProt Q16627 28-93) (ligand)”: the calcium flux (dose response curve) was found to be 2 nM.
